In paper PMC5904255, “High-Mobility Group Box 1-Induced Complement Activation Causes Sterile Inflammation” (Frontiers in Immunology, 2018):

How the values were obtained:
[1] = target: T1, purified normal human C1q (human, UniProt P02745 23-245; P02746 28-253; P02747 29-245); assay: SPR; reciprocal: HMGB1 WT (R&D), A box or B box (10 µg/ml) immobilised on CM5 chip in 10 mM sodium acetate pH 4.0; C1q in HBS-EP (10 mM HEPES, 150 mM NaCl, 3.4 mM EDTA, 0.05% Tween 20, pH 7.4) at 200, 100, 50, 25 and 12.5 nM, 20 µl/min for 3 min; BIAcore 2000; details: both partners purified
T1 construct: Complement C1q subcomponent subunit A, human; Complement C1q subcomponent subunit B, human; Complement C1q subcomponent subunit C, human; Used purified (ELISA, SPR) and in 10% normal human serum (microspheres); also called serum C1q; C1q protein; source: bought: Sigma (purified normal human C1q); endogenous, normal human serum; copies: + +
T1 sequence (P02745 23-245, chain 1 of 3): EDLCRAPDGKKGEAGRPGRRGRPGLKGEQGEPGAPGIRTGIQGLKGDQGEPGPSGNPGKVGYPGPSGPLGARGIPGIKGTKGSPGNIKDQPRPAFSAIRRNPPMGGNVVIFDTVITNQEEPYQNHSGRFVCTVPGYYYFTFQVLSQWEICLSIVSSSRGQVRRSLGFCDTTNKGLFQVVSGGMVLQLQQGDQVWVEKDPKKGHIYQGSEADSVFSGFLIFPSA
T1 sequence (P02746 28-253, chain 2 of 3): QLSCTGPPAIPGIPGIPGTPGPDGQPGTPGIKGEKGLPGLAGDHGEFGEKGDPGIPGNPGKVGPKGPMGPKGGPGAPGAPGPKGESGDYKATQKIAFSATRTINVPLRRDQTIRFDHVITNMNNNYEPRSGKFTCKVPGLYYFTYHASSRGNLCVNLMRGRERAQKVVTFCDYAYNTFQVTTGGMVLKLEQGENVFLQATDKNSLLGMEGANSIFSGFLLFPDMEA
T1 sequence (P02747 29-245, chain 3 of 3): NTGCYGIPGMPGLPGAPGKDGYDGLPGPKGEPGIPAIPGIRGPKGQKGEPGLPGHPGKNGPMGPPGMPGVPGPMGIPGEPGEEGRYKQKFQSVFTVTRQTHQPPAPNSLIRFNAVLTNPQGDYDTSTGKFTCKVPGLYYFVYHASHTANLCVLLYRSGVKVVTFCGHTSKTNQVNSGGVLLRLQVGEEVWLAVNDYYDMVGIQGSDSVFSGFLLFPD

[2] = target: T1, purified normal human C1q; assay: SPR; C1q immobilised on CM5 dextran sensor chip; HMGB1 proteins passed over at 1.8, 0.9, 0.45, 0.23 and 0.11 µM; BIAcore 2000; details: both partners purified

Binder | Kd [1] [µM] | Kd [2] [µM]
HMGB1 produced in NS0 mouse myeloma cell line (Euk-HMGB1, R&D Systems) (natural protein, human, UniProt P09429 1-215, looked up, High-mobility group box 1 (HMGB1), human, produced in mouse myeloma cell line NS0; No catalogue number is printed; also called HMGB1 WT (R&D); source: bought: R&D Systems (produced in NS0 mouse myeloma cell line)) MGKGDPKKPRGKMSSYAFFVQTCREEHKKKHPDASVNFSEFSKKCSERWKTMSAKEKGKFEDMAKADKARYEREMKTYIPPKGETKKKFKDPNAPKRPPSAFFLFCSEYRPKIKGEHPGLSIGDVAKKLGEMWNNTAADDKQPYEKKAAKLKEKYEKDIAAYRAKGKPDAAKKGVVKAEKSKKKKEEEEDEEDEEDEEEEEDEEDEDEEEDDDDE | ~0.4 | 
HMGB1 box A (aa 1-79) (domain or fragment, human, UniProt P09429 1-79, looked up, HMGB1, human, A box, aa 1-79; Subcloned into pRSET B; also called HMGB1 A box; A box; source: E. coli BL21 (DE3) pLysE, purified) MGKGDPKKPRGKMSSYAFFVQTCREEHKKKHPDASVNFSEFSKKCSERWKTMSAKEKGKFEDMAKADKARYEREMKTYI |  | ~4
HMGB1 box B (aa 88-162) (domain or fragment, human, UniProt P09429 88-162, looked up, HMGB1, human, B box, aa 88-162; Subcloned into pRSET B; also called HMGB1 B box; B box; source: E. coli BL21 (DE3) pLysE, purified) KFKDPNAPKRPPSAFFLFCSEYRPKIKGEHPGLSIGDVAKKLGEMWNNTAADDKQPYEKKAAKLKEKYEKDIAAY |  | ~4
